In paper PMC4003566:

Target: human α7 nAChR TM domain (human)
Experiment: SEC-MALS

## human α7 nAChR TM domain (domain or fragment)
  stoichiometry N: 5
